B1: HsMTHFR_(38-644) (domain or fragment)
chain: not shown
B2: HsMTHFR_(1-656) treated with calf intestine alkaline phosphatase (dephosphorylated) (enzyme)
chain: not shown

Key:
crystal structure = molecular target: the molecule itself; test: crystal structure
native MS = molecular target: the molecule itself; test: native MS

Row | Protein | stoichiometry N (crystal structure) | stoichiometry N (native MS)
1 | B1 | 2 | 
2 | B2 |  | 2
